{"source": "paper PMC4619462", "about": "“Description of the first fungal dye-decolorizing peroxidase oxidizing manganese(II)” (Applied Microbiology and Biotechnology, 2015)", "proteins": {"B1": {"name": "Pleos-VP2 (Pleurotus ostreatus) (protein)", "chain": "VTCATGQTTANEACCALFPILDDIQTNLFDGAQCGEEVHESLRLTFHDAIAFSPALTNAGQFGGGGADGSMIIFSDTEPNFHANLGIDEIVEAQKPFIARHNICAADFIQFAGAIGVSNCAGAPRLNFFLGRPDATQIPPDGLVPEPFDDVTKILSRMGDAGFSTVEVVWLLSSHTIAAADLVDPSIPGTPFDSTPSTFDSQFFLETMLQGTAFPGTPGNQGEVESPLAGEMRLQSDFLLARDSRSACEWQSMVNNMPKIQNRFTQVMKKLSLLGHNQADLIDCSDVIPVPKTLTKAATFPAGKSQADVEIVCNAAATPFPALSSDPGPVTAVPPVPPS"}, "B2": {"name": "Pleos-DyP4 (Pleurotus ostreatus PC15) (protein)", "chain": "MTTPAPPLDLNNIQGDILGGLPKRTETYFFFDVTNVDQFKANMAHFIPHIKTSAGIIKDREAIKEHKRQKKPGLVPMAAVNVSFSHLGLQKLGITDDLSDNAFTTGQRKDAEILGDPGSKNGDAFTPAWEAPFLKDIHGVIFVAGDCHGSVNKKLDEIKHIFGVGTSHASISEVTHVRGDVRPGDVHAHEHFGFLDGISNPAVEQFDQNPLPGQDPIRPGFILAKENGDSRAAARPDWAKDGSFLTFRYLFQMVPEFDDFLESNPIVLPGLSRKEGSELLGARIVGRWKSGAPIEITPLKDDPKLAADAQRNNKFDFGDSLVRGDQTKCPFAAHIRKTYPRNDLEGPPLKADIDNRRIIRRGIQFGPEVTSQEHHDKKTHHGRGLLFVCYSSSIDDGFHFIQESWANAPNFPVNAVTSAGPIPPLDGVVPGFDAIIGQKVGGGIRQISGTNPNDPTTNITLPDQDFVVPRGGEYFFSPSITALKTKFAIGVASPAPHSQAPISA"}}, "assay_in_all_cases": "purified protein", "key": {"purified protein [1]": {"substrate": "Nc1c(S(=O)(=O)O)cc(Nc2cccc(S(=O)(=O)CCOS(=O)(=O)O)c2)c2c1C(=O)c1ccccc1C2=O", "format": "biochemical, Pleurotus ostreatus", "conditions": "0.25 mM H2O2, 0.1 M tartrate pH 3.5, 25 °C"}, "purified protein [2]": {"substrate": "COc1cccc(OC)c1O", "conditions": "0.25 mM H2O2, 0.1 M tartrate pH 3.5 (table note; methods say pH 3), 25 °C"}, "purified protein [3]": {"substrate": "Nc1c(N=Nc2ccc(S(=O)(=O)CCOS(=O)(=O)O)cc2)c(S(=O)(=O)O)cc2cc(S(=O)(=O)O)c(N=Nc3ccc(S(=O)(=O)CCOS(=O)(=O)O)cc3)c(O)c12", "conditions": "0.25 mM H2O2, 0.1 M tartrate pH 3.5 (table note; methods say pH 3), 25 °C"}, "purified protein [4]": {"substrate": "Nc1c(S(=O)(=O)O)cc(Nc2cccc(S(=O)(=O)CCOS(=O)(=O)O)c2)c2c1C(=O)c1ccccc1C2=O", "conditions": "0.25 mM H2O2, 0.1 M tartrate pH 3.5, 25 °C, pH 3.5"}, "purified protein [5]": {"substrate": "CCn1c(=NN=c2sc3cc(S(=O)(=O)O)ccc3n2CC)sc2cc(S(=O)(=O)O)ccc21", "format": "biochemical, Pleurotus ostreatus", "conditions": "0.25 mM H2O2, 0.1 M tartrate pH 3.5, 25 °C"}}}
{"protein": "B1", "values": [{"measurement": "Km", "setting": "purified protein [1]", "result": "16 ± 1", "unit": "µM"}, {"measurement": "kcat", "setting": "purified protein [1]", "result": "8 ± 0.2", "unit": "s⁻¹"}, {"measurement": "kcat/Km", "setting": "purified protein [1]", "result": 495000, "unit": "M⁻¹ s⁻¹"}]}
{"protein": "B2", "values": [{"measurement": "Km", "setting": "purified protein [2]", "result": "126 ± 21", "unit": "µM"}, {"measurement": "kcat", "setting": "purified protein [2]", "result": "268 ± 24", "unit": "s⁻¹"}, {"measurement": "kcat/Km", "setting": "purified protein [2]", "result": "2.12e+06", "unit": "M⁻¹ s⁻¹"}, {"measurement": "Km", "setting": "purified protein [3]", "result": "5.7 ± 0.4", "unit": "µM"}, {"measurement": "kcat", "setting": "purified protein [3]", "result": "5.3 ± 0.8", "unit": "s⁻¹"}, {"measurement": "kcat/Km", "setting": "purified protein [3]", "result": "1.08e+06", "unit": "M⁻¹ s⁻¹"}, {"measurement": "Km", "setting": "purified protein [4]", "result": "82 ± 13", "unit": "µM"}, {"measurement": "kcat", "setting": "purified protein [4]", "result": "152 ± 13", "unit": "s⁻¹"}, {"measurement": "kcat/Km", "setting": "purified protein [4]", "result": "1.86e+06", "unit": "M⁻¹ s⁻¹"}, {"measurement": "Km", "setting": "purified protein [5]", "result": "787 ± 160", "unit": "µM"}, {"measurement": "kcat", "setting": "purified protein [5]", "result": "277 ± 24", "unit": "s⁻¹"}, {"measurement": "kcat/Km", "setting": "purified protein [5]", "result": 352000, "unit": "M⁻¹ s⁻¹"}]}
